# From paper PMC10631208
# Columns and labels:
# PDGF-BB [1] = molecular target: T1, PDGF-BB (human, UniProt P01127 82-190); assay: structure-switching fluorescence
# PDGF-BB [2] = molecular target: T1, PDGF-BB; assay: structure-switching fluorescence; remark: listed apart in the source
# T1 sequence (P01127 82-190): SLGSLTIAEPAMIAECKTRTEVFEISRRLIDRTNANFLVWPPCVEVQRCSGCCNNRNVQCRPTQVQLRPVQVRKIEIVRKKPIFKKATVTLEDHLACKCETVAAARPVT
Binder,binding signal (PDGF-BB [1]),binding result (PDGF-BB [2])
SPDGF (Apt35-FAM/cDNA12-BHQ1/cDNADCV) (mixed) DNA 1: AAGGCTACGGCACGTAGAGCATCACCATGATCCTGTGTGGTCTATGTCGTCGTTCG DNA 2: TGCCGTAGCCTT DNA 3: AAGTATTACCAGAAACGAACGACGACATAGACCACA,~6.9 fold fluorescence increase,–
mSPDGF (mApt35-FAM/cDNA12-BHQ1/cDNADCV) (mixed) DNA 1: AAGGCTACGGCACGATCTCGTAGTGGTCTGACTGCTGTGGTCTATGTCGTCGTTCG DNA 2: TGCCGTAGCCTT DNA 3: AAGTATTACCAGAAACGAACGACGACATAGACCACA,–,no binding
